Drawing on PMC9482650, “Quantitative fragmentomics allow affinity mapping of interactomes” (Nature Communications, 2022), this text covers pKd for three molecules.

Among the targets are Inadl_1, Q8NI35; LAP2, Q96RT1; SCRIB_2, Q14160; Inadl_2, Q8NI35; GOPC, Q9HD26; MAGI1_2, Q96QZ7; GRID2IP_2, A4D2P6; TJP1_2, Q07157; GRIP2_4, Q9C0E4; DLG5_1, Q8TDM6; DLG2_3, Q15700; GRASP, Q7Z6J2.
Assay in all cases: holdup assay
Common to all, as to set-up: key: below the threshold = too weak to quantify, mostly under pKd 3.1 to 4
Holding throughout (conditions): plain residues with an end cap or a label only (N-terminal biotin on a linker: ado-ado)

The target of the next experiment is T1, MPDZ_12, O75970.
T1 sequence (O75970 1857-1958, limits assumed, looked up): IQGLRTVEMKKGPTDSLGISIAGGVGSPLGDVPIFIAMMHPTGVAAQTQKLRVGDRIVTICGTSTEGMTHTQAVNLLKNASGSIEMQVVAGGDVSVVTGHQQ

The next experiment has as its target T2, GRIP1_2, Q9Y3R0.
T2 sequence (Q9Y3R0 145-248, limits assumed, looked up): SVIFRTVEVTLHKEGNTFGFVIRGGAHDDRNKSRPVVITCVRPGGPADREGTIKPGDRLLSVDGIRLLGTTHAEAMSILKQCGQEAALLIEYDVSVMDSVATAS

The target in a further experiment is T3, MPP6, Q9NZW5.
T3 sequence (Q9NZW5 125-219, limits assumed, looked up): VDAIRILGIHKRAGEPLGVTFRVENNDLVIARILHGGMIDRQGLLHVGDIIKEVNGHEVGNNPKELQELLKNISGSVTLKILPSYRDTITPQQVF

Another experiment deals with T4, ARHGEF11, O15085.
T4 sequence (O15085 42-136, limits assumed, looked up): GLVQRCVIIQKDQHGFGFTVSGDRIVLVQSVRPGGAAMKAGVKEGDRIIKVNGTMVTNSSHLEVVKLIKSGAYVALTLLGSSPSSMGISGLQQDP

In a further experiment the target is T5, PARD3B_1, Q8TEW8.
T5 sequence (Q8TEW8 196-299, limits assumed, looked up): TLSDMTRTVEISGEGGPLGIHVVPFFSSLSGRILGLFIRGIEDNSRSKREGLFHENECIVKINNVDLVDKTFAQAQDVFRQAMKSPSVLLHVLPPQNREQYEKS

A further experiment deals with T6, GRIP1_3, Q9Y3R0.
T6 sequence (Q9Y3R0 247-346, limits assumed, looked up): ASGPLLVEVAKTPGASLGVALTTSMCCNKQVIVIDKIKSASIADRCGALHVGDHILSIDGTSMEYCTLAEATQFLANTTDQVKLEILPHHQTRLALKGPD

A further experiment concerns the target T7, SHANK1, Q9Y566.
T7 sequence (Q9Y566 658-767, limits assumed, looked up): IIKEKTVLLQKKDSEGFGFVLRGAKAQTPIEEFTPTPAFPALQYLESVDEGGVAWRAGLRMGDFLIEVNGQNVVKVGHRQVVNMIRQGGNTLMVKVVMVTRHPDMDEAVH

For another experiment, the target named is T8, DLG3_2, Q92796.
T8 sequence (Q92796 221-321, limits assumed, looked up): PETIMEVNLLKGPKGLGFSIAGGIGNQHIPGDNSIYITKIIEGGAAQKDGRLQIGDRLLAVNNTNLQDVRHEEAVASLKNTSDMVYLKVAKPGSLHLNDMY

A further experiment addresses T9, APBA2_2, Q99767.
T9 sequence (Q99767 654-744, limits assumed, looked up): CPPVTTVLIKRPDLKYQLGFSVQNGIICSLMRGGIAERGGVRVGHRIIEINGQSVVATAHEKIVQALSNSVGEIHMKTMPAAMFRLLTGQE

The next experiment addresses T10, HTRA3, P83110.
T10 sequence (P83110 354-453, limits assumed, looked up): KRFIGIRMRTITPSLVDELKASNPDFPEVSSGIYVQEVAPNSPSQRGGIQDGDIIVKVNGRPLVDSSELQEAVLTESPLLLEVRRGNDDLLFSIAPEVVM

For the next experiment, the target named is T11, APBA1_1, Q02410.
T11 sequence (Q02410 651-752, limits assumed, looked up): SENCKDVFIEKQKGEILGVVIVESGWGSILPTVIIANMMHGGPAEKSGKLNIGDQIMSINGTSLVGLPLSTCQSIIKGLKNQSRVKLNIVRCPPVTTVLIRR

For another experiment, the target named is T12, DLG3_3, Q92796.
T12 sequence (Q92796 374-475, limits assumed, looked up): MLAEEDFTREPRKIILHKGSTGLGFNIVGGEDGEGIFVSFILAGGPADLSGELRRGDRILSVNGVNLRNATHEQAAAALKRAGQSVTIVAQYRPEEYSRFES

SCRIB_2, Q14160, sequence (Q14160 857-960): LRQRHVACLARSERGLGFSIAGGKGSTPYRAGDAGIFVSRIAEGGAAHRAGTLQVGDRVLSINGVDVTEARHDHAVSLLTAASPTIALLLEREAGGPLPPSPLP
LAP2, Q96RT1, sequence (Q96RT1 other isoform, or with tags, fused parts or gaps): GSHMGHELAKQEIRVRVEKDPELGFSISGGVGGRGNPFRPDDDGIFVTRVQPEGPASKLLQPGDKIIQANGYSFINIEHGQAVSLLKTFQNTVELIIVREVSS
Inadl_2, Q8NI35, sequence (Q8NI35 238-335): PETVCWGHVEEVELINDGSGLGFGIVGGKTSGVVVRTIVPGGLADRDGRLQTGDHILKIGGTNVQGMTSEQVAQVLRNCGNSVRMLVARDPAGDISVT
MAGI1_2, Q96QZ7, sequence (Q96QZ7 456-580): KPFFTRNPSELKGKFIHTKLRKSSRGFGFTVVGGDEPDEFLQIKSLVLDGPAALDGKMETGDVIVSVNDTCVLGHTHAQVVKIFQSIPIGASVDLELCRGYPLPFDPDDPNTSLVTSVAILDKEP
Inadl_1, Q8NI35, sequence (Q8NI35 113-229): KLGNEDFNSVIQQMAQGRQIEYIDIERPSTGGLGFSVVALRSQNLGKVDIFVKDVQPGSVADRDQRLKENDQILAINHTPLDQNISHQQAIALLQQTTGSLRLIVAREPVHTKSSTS
GRID2IP_2, A4D2P6, sequence (A4D2P6 272-370): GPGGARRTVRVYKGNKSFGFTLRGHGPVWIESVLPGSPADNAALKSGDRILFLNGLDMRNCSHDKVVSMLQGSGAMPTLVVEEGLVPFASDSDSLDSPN
TJP1_2, Q07157, sequence (Q07157 181-274): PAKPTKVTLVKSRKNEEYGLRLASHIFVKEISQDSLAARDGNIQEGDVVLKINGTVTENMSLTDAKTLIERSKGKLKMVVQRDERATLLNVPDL
GRIP2_4, Q9C0E4, sequence (Q9C0E4 446-548): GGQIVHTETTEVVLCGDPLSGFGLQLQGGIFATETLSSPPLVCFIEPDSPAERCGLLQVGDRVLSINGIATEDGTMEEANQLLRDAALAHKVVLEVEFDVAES
DLG5_1, Q8TDM6, sequence (Q8TDM6 617-713): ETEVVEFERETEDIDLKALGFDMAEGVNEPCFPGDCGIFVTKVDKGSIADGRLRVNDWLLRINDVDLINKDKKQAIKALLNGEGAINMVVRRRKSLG
GRASP, Q7Z6J2, sequence (Q7Z6J2 96-193): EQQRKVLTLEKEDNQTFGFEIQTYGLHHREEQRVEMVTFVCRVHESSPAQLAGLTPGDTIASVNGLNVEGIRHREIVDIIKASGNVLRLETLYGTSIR

B1: SEMA4C, Q9C0C4 (peptide)
chain: PDSNPEESSV
With B1, the pKd entry in the experiment with Inadl_1, Q8NI35 is “below the threshold”; with LAP2, Q96RT1 it was 4.46; with SCRIB_2, Q14160, 4.43; with MPDZ_12, O75970, “below the threshold”; with Inadl_2, Q8NI35 it was “below the threshold”; in the experiment with GRIP1_2, Q9Y3R0, “below the threshold”. Also, the negative-log Kd (pKd) is 3.67 with GOPC, Q9HD26; “below the threshold” with MPP6, Q9NZW5; 3.83 in the experiment with ARHGEF11, O15085; “below the threshold” with PARD3B_1, Q8TEW8; “below the threshold” in the experiment with MAGI1_2, Q96QZ7; “below the threshold” with GRIP1_3, Q9Y3R0. The pKd entry is “below the threshold” with SHANK1, Q9Y566; 3.9 with GRID2IP_2, A4D2P6; 3.73 in the experiment with DLG3_2, Q92796; “below the threshold” with APBA2_2, Q99767; “below the threshold” in the experiment with HTRA3, P83110; “below the threshold” with TJP1_2, Q07157. Moreover, the pKd result was “below the threshold” with GRIP2_4, Q9C0E4; “below the threshold” with DLG5_1, Q8TDM6; “below the threshold” with APBA1_1, Q02410; “below the threshold” with DLG2_3, Q15700; 3.62 with DLG3_3, Q92796; 3.91 with GRASP, Q7Z6J2.

B2: KCNT1, Q5JUK3 (peptide)
chain: NPETRDETQL
For B2, the pKd entry is “below the threshold” with Inadl_1, Q8NI35; “below the threshold” with LAP2, Q96RT1; 4.05 in the experiment with SCRIB_2, Q14160; “below the threshold” with MPDZ_12, O75970; “below the threshold” in the experiment with Inadl_2, Q8NI35; “below the threshold” with GRIP1_2, Q9Y3R0. In addition, the pKd is 3.76 with GOPC, Q9HD26; 3.74 with MPP6, Q9NZW5; 4.01 in the experiment with ARHGEF11, O15085; 3.92 in the experiment with PARD3B_1, Q8TEW8; “below the threshold” with MAGI1_2, Q96QZ7; “below the threshold” with GRIP1_3, Q9Y3R0. The pKd with SHANK1, Q9Y566 was 4.14; with GRID2IP_2, A4D2P6, 3.85; with DLG3_2, Q92796, “below the threshold”; with APBA2_2, Q99767, “below the threshold”; with HTRA3, P83110 it was “below the threshold”; in the experiment with TJP1_2, Q07157, “below the threshold”. The pKd result is listed as “below the threshold” with GRIP2_4, Q9C0E4; “below the threshold” in the experiment with DLG5_1, Q8TDM6; “below the threshold” with APBA1_1, Q02410; “below the threshold” with DLG2_3, Q15700; “below the threshold” with DLG3_3, Q92796; “below the threshold” with GRASP, Q7Z6J2.

B3: ADGRG1, Q9Y653 (peptide)
chain: SSGSTSSSRI
Consider B3, for which the pKd entry with Inadl_1, Q8NI35 is listed as “below the threshold”; with LAP2, Q96RT1, “below the threshold”; with SCRIB_2, Q14160 it was “below the threshold”; in the experiment with MPDZ_12, O75970 it was “below the threshold”; with Inadl_2, Q8NI35, “below the threshold”; in the experiment with GRIP1_2, Q9Y3R0 it was “below the threshold”. In addition, the pKd with GOPC, Q9HD26 is 4; with MPP6, Q9NZW5 it was “below the threshold”; with ARHGEF11, O15085 it was 3.93; with PARD3B_1, Q8TEW8, 3.93; with MAGI1_2, Q96QZ7, “below the threshold”; with GRIP1_3, Q9Y3R0, “below the threshold”. Besides, the pKd with SHANK1, Q9Y566 was 4.31; in the experiment with GRID2IP_2, A4D2P6 it was 4.02; with DLG3_2, Q92796, 3.75; with APBA2_2, Q99767 it was “below the threshold”; in the experiment with HTRA3, P83110, “below the threshold”; in the experiment with TJP1_2, Q07157, “below the threshold”. The pKd result with GRIP2_4, Q9C0E4 was “below the threshold”; with DLG5_1, Q8TDM6 it was “below the threshold”; with APBA1_1, Q02410, “below the threshold”; with DLG2_3, Q15700, 3.73; with DLG3_3, Q92796, 3.64; with GRASP, Q7Z6J2 it was “below the threshold”.
